# From article PMC5171940, “Structure of Crenezumab Complex with Aβ Shows Loss of β-Hairpin” (Scientific Reports, 2016)
# Where no end group is shown, it is not given here.
# T1: Aβ monomers on the SPR chip: biotinylated Aβ 11–28 (Homo sapiens (from His13), UniProt P05067, also: biotin, position not given here)
# T1 construct: amyloid-β peptide, residues 11-28; the methods name only 11–28; also called monomer Aβ chips
# T1 chain: EVHHQKLVFFAEDVGSNK
# B1: Crenezumab, fully humanized anti-Aβ monoclonal IgG4 (antibody, V domains shown)
# VH: EVQLVESGGGLVQPGGSLRLSCAASGFTFSSYGMSWVRQAPGKGLELVASINSNGGSTYYPDSVKGRFTISRDNAKNSLYLQMNSLRAEDTAVYYCASGDYWGQGTTVTVSS
# VL: DIVMTQSPLSLPVTPGEPASISCRSSQSLVYSNGDTYLHWYLQKPGQSPQLLIYKVSNRFSGVPDRFSGSGSGTDFTLKISRVEAEDVGVYYCSQSTHVPWTFGQGTKVEIK
# notes: crenezumab VH: as the VH of the heavy chain of m1 (PDB 5KNA / 5KMV) but without the T108L change; IgG4 heavy chain constant region; as the light chain of m1 (unaltered crenezumab light chain); IgG4; also called full-length IgG4; copies: 2 + 2
# Biological target: T1, Aβ monomers on the SPR chip: …
# Test: SPR; BIAcore T200, single-cycle kinetics; biotinylated Aβ (11–28 or oligomeric 1–42) captured on streptavidin-coupled CM5 chip (100–200 RU); antibody as analyte 0.8–500 nM in HBS-P pH 7.4, 0.15 M NaCl; one-to-one Langmuir model
# Conditions: both partners purified
binder,measurement,value
B1,Kd,3 to 5 nM
